{
  "source": "patent US20240199755A1",
  "about": "“ANTAGONISTS AND AGONISTS OF THE TRANSFERRIN RECEPTOR-2 FOR USE IN THE TREATMENT OF DISEASES OF THE BONE” (Kymab Limited, priority 2018, published 2024)",
  "test_system": "BMP-2-induced heterotopic ossification",
  "assay": "BMP-2-induced heterotopic ossification (HO) mouse model",
  "type": "in vivo, mice",
  "details": "for Heterotopic ossification (bone volume by μCT): after two weeks",
  "method": "Male and female C57BL/6 mice are used for the HO model. The HO is triggered by injecting BMP-2 into the muscle (Wosczyna et al. 2012).\nAll the mice are fed with standard feed and water ad libitum and are kept in groups of five mice per cage. The mice are exposed to a 12-hour light/dark cycle and air cooling to 23° C. (no special pathogen-free room). Enrichment is provided in the form of cardboard houses and bedding material. The mice are randomly divided into the different treatment groups and the assays are subsequently carried out as blind experiments.\nThe HO is examined by means of treatment using 2.5 μl of a 1 mg/ml recombinant BMP-2 solution (Thermo Fisher Scientific) or 2.5 μl of a 1 mg/ml Tfr2-ECD mixed with 47.5 μl Matrigel (BD Bioscience) at 0° C. For combination treatment, 2.5 of a 1 mg/ml recombinant BMP-2 solution is mixed with 2.5 μl of a 1 mg/ml Tfr2-ECD and 45 μl Matrigel. The Matrigel mixtures are injected into the musculus tibialis anterior of 10-week-old female wild-type mice. The legs are examined after two weeks.\nThe bone microarchitecture is analyzed using vivaCT40 (Scanco Medical, Switzerland). The entire lower leg bones are measured at a resolution of 10.5 μm using X-rays of 70 kVp, […] and at an integration time of 200 s. Predefined scripts from Scanco are used to analyze the bone (#1).\nHeterotopic ossification (HO): The HO model was performed according to Wosczyna et al^32. Briefly, 2.5 μl of 1 mg/ml recombinant BMP-2 (Thermo Fisher) or 2.5 μl of 1 mg/ml Tfr2-ECD were mixed with 47.5 μl matrigel (BD Bioscience) on ice. For the local combination treatment, 2.5 μl BMP-2 were mixed with 2.5 μl Tfr2-ECD and 45 μl matrigel. The matrigel-mixtures were injected into the midbelly of the tibialis anterior muscle of 10-week-old female WT and Tfr2-deficient mice. Some mice were treated daily with palovarotene through oral gavage using a previously published protocol^58. Palovarotene (Hycultec) was dissolved in DMSO and diluted 1:4 with corn oil. Mice received palovarotene at a dose of 100 μg/mouse for the first five days and 50 μg/mouse for the remainder of the experiment (days 6-14). Two weeks after BMP-2 injection, the legs were harvested for analysis. This experiment was performed three times with 3-11 mice per group. To analyze the chondrogenic phase of HO, we performed an experiment as described above that was terminated on day 8. This was performed once with 4-6 mice per group.\nFor systemic Tfr2-ECD treatment, WT mice were treated every other day with Tfr2-ECD intraperitoneally for two weeks. Mice received 250 μg Tfr2-ECD (10 mg/kg BW) per injection for the first 10 days after BMP-2/matrigel injection into the muscle and 125 μg per injection (5 mg/kg BW) for the remaining time. This experiment was performed once with 8-10 mice per group. Drop-weight HO: This experiment was performed according to Liu et al. with minor modifications^65. Female 10-12-week-old WT mice were anesthetized and placed on a ridge of a plastic container over which the right leg was bent so the femur was lying horizontally. Mice received an injection of 1 μg BMP-2 mixed in 50 μl matrigel. Afterwards, a stainless-steel ball of 16 g (16 mm diameter) was dropped from a distance of 80 cm height onto the quadriceps muscle. Mice either received a single dose of 1 μg Tfr2-ECD, which was co-injected with the BMP-2/matrigel mixture, or palovarotene (Hycultec), which was administered daily by oral gavage. Palovarotene was dissolved in DMSO and diluted 1:4 with corn oil. […]",
  "key": {"[1]": {"details": "WT mice, day 8, systemic treatment, Safranin O staining"}},
  "note": "“Also recorded” adds a separate entry of the source.",
  "data": [
    {"molecule": "Tfr2-ECD: Recombinant full-length extracellular domain (aa 103-798) of murine Tfr2, His-tagged, expressed in Sf9 insect cells (protein, listed as Mus musculus, His tag, Recombinant full-length extracellular domain (aa 103-798) of murine Tfr2, His-tagged, expressed in Sf9 insect cells) RGSCQACGDSVLVVDEDVNPEDSGRTTLYWSDLQAMFLRFLGEGRMEDTIRLTSLRERVAGSARMATLVQDILDKLSRQKLDHVWTDTHYVGLQFPDPAHANTLHWVDADGSVQEQLPLEDPEVYCPYSATGNATGKLVYAHYGRSEDLQDLKAKGVELAGSLLLVRVGITSFAQKVAVAQDFGAQGVLIYPDPSDFSQDPHKPGLSSHQAVYGHVHLGTGDPYTPGFPSFNQTQFPPVESSGLPSIPAQPISADIADQLLRKLTGPVAPQEWKGHLSGSPYRLGPGPDLRLVVNNHRVSTPISNIFACIEGFAEPDHYVVIGAQRDAWGPGAAKSAVGTAILLELVRTFSSMVSNGFRPRRSLLFISWDGGDFGSVGATEWLEGYLSVLHLKAVVYVSLDNSVLGDGKFHAKTSPLLVSLIENILKQVDSPNHSGQTLYEQVALTHPSWDAEVIQPLPMDSSAYSFTAFAGVPAVEFSFMEDDRVYPFLHTKEDTYENLHKMLRGRLPAVVQAVAQLAGQLLIRLSHDHLLPLDFGRYGDVVLRHIGNLNEFSGDLKERGLTLQWVYSARGDYIRAAEKLRKEIYSSERNDERLMRMYNVRIMRVEFYFLSQYVSPADSPFRHIFLGQGDHTLGALVDHLRMLRADGSGAASSRLTAGLGFQESRFRRQLALLTWTLQGAANALSGDVWNIDNNF", "values": [
      {"measurement": "Heterotopic ossification (bone volume by μCT)", "setting": "Tfr2-/- mice, co-application of Tfr2-ECD with BMP-2", "result": "significantly inhibited"},
      {"measurement": "Number of chondrocytes (chondrogenic phase of HO)", "setting": "[1]", "result": "suppressed"},
      {"measurement": "Production of cartilage (chondrogenic phase of HO)", "setting": "[1]", "result": "suppressed"},
      {"measurement": "Heterotopic ossification (bone volume by μCT)", "setting": "WT mice, local Tfr2-ECD co-injected with BMP-2 into the muscle", "result": "significant reduction in bone formation; also recorded: completely abrogated; also recorded: reduced; also recorded: inhibited"},
      {"measurement": "Heterotopic ossification (bone volume by μCT)", "setting": "WT mice, systemic treatment, i.p. injections every other day", "result": "reduced; also recorded: inhibited"}
    ]}
  ]
}
